Results as given in US20260209362A1 (VIB VZW, published 2026).
Numbering of substitutions follows the chain as printed. Each block holds one molecule with its values, some of them ahead of it.

Experiments:
CD20 (human) = CD20 (human) (UniProt P11836)
[1] = target: human IL-12Rβ2 expressed on cells (human) (UniProt Q99665)
[2] = target: T1, biotinylated recombinant mouse IL-12Rβ2 (mouse, UniProt P97378 24-637, random biotinylated); assay: BLI (Octet), periplasmic extract on biotinylated mIL-12Rβ2 on streptavidin tips, 1:1 model
T1 construct: Recombinant protein produced in-house, biotinylated; also called mIL-12RB2; mouse IL-12RB2
T1 sequence: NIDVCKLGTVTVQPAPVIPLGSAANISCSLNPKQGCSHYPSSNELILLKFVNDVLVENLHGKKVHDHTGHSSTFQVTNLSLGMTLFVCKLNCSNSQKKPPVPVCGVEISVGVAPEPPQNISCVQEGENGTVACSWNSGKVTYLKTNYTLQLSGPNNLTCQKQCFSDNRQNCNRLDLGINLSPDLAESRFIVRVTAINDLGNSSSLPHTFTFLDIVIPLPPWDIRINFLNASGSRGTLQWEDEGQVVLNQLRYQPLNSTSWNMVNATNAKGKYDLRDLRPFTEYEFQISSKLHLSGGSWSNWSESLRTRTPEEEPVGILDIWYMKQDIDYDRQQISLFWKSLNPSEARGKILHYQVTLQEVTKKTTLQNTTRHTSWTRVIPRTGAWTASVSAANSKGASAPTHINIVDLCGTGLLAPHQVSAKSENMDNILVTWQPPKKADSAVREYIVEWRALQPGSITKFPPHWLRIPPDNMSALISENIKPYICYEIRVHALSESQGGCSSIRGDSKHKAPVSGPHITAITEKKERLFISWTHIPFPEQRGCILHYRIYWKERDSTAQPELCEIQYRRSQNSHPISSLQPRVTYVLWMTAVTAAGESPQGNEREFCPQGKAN

[3] = target: T2, biotinylated recombinant human IL-12Rβ2 (human, UniProt Q99665 24-622, random biotinylated); assay: BLI (Octet), periplasmic extract on biotinylated hIL-12Rβ2 on streptavidin tips, 1:1 model
T2 construct: Recombinant protein produced in-house, biotinylated; also called hIL-12RB2; human IL-12RB2
T2 sequence: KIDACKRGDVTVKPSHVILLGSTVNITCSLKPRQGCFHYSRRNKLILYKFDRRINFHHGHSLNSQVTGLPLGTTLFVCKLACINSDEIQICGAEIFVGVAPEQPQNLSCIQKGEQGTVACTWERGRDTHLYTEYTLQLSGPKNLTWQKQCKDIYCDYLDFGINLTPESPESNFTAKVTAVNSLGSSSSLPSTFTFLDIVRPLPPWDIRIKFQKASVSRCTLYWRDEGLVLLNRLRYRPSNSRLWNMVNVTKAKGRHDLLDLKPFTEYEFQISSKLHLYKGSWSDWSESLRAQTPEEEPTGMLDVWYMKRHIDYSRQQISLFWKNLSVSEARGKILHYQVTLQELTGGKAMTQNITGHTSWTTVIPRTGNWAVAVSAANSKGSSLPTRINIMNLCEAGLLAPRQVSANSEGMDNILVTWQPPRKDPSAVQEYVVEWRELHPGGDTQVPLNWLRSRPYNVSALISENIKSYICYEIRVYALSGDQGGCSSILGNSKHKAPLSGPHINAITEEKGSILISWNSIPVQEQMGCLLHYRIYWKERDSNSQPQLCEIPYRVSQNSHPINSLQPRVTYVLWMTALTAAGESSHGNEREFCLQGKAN

[4] = target: T1, biotinylated recombinant mouse IL-12Rβ2; assay: BLI (Octet), periplasmic extract on biotinylated mIL-12Rβ2 on streptavidin tips
[5] = target: T2, biotinylated recombinant human IL-12Rβ2; assay: BLI (Octet), periplasmic extract on biotinylated hIL-12Rβ2 on streptavidin tips
[6] = target: T2, biotinylated recombinant human IL-12Rβ2; assay: ELISA, periplasmic extract on biotinylated hIL-12Rβ2, signal over control wells
[7] = target: T1, biotinylated recombinant mouse IL-12Rβ2; assay: ELISA, periplasmic extract on biotinylated mIL-12Rβ2, signal over control wells

CD20 (human), sequence (P11836 whole entry): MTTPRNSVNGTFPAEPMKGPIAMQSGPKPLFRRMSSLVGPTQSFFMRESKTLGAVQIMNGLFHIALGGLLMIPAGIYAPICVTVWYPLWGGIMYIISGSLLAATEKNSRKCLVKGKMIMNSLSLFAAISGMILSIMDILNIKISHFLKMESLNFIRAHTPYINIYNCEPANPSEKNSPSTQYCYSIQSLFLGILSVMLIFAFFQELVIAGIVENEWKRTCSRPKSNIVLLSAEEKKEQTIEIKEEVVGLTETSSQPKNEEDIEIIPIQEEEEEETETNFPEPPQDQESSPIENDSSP

- % Specific Cell Lysis at 0.00125 ug/mL (CD20 (human)): 52.4%
- % Specific Cell Lysis at 0.025 ug/mL (CD20 (human)): 64.7%
- % Specific Cell Lysis at 0.5 ug/mL (CD20 (human)): 75.6%
- % Specific Cell Lysis at 10 ug/mL (CD20 (human)): 77.5%
Molecule: Rituximab (antibody)

- % Specific Cell Lysis at 0.00125 ug/mL [1]: 47.5%
- % Specific Cell Lysis at 0.025 ug/mL [1]: 50.4%
- % Specific Cell Lysis at 0.5 ug/mL [1]: 48.7%
- % Specific Cell Lysis at 10 ug/mL [1]: 44.6%
Molecule: IgG1 (antibody)

- koff [2]: 0.00671 s⁻¹
- koff [3]: 0.00634 s⁻¹
- Response [4]: 0.812
- Response [5]: 1.45
- ELISA binding hIL-12RB2/control [6]: 4.24 ratio
- ELISA binding mIL-12RB2/control [7]: 5.24 ratio
B1: anti-IL-12Rβ2 VHH clone 21062 (VHH, not shown: small tags and cut ends)
VHH: QVQLQESGGGLVQPGGSLRLSCAASGISSSRLHVGWFRQSPGKEREFVAAISLSGGTQAYTDSVKGRFTISGDNVKNTAYLQMNSLRPEDTAVYYCAARERFIWTWSDLTYDYWGQGTQVTVSS
notes: tested as periplasmic extract; also called 3CRHM99

- koff [2]: 0.00605 s⁻¹
- koff [3]: 0.00605 s⁻¹
- Response [4]: 0.944
- Response [5]: 1.45
- ELISA binding hIL-12RB2/control [6]: 6.9 ratio
- ELISA binding mIL-12RB2/control [7]: 26.3 ratio
B2: anti-IL-12Rβ2 VHH clone 21060 (VHH, not shown: small tags and cut ends)
VHH: QVQLQESGGGLVQAGGSLSLSCAASGSAFRLNFMGWYRQAPGKQRELVAAINSGGTEIYHDSVKGRFTISRDNADSTVWLQMNSLKPDDTAVYYCAADRGISWSKLAGGMDYWGKGTQVTVSS
notes: tested as periplasmic extract; also called 3CRHM73

- koff [2]: 0.00599 s⁻¹
- koff [3]: 0.00547 s⁻¹
- Response [4]: 0.837
- Response [5]: 1.32
- ELISA binding hIL-12RB2/control [6]: 7.28 ratio
- ELISA binding mIL-12RB2/control [7]: 38.3 ratio
B3: anti-IL-12Rβ2 VHH clone 21052 (VHH, not shown: small tags and cut ends)
VHH: QVQLQESGGGSVQAGGSLRLSCAVSGRTVSDYAMGWFRQAPGKEREFVAAMSSSETTVYPNSVKGRITISRDNAKNAVYLQMNALKPEDTAVYYCSMGPIVTFQGLARQNEYHYWGQGTQVTVSS
notes: tested as periplasmic extract; also called 3CRHM12

- koff [2]: 0.00667 s⁻¹
- koff [3]: 0.00389 s⁻¹
- Response [4]: 0.97
- Response [5]: 1.13
- ELISA binding hIL-12RB2/control [6]: 3.46 ratio
- ELISA binding mIL-12RB2/control [7]: 3.92 ratio
B4: anti-IL-12Rβ2 VHH clone 21063 (VHH, not shown: small tags and cut ends)
VHH: B3 VHH with T28P, M51L, S53A, E55D, Y79D, S96A, V101G
notes: tested as periplasmic extract; also called 3CRHM133

- koff [2]: 0.00483 s⁻¹
- koff [3]: 0.00457 s⁻¹
- Response [4]: 1.05
- Response [5]: 1.5
- ELISA binding hIL-12RB2/control [6]: 3.78 ratio
- ELISA binding mIL-12RB2/control [7]: 5.72 ratio
B5: anti-IL-12Rβ2 VHH clone 21065 (VHH, not shown: small tags and cut ends)
VHH: B3 VHH with A49V, P60T, V101T
notes: tested as periplasmic extract; also called 3CRHM240

- koff [2]: 0.00644 s⁻¹
- koff [3]: 0.00578 s⁻¹
- Response [4]: 0.809
- Response [5]: 1.32
- ELISA binding hIL-12RB2/control [6]: 3.73 ratio
- ELISA binding mIL-12RB2/control [7]: 11.9 ratio
B6: anti-IL-12Rβ2 VHH clone 21051 (VHH, not shown: small tags and cut ends)
VHH: B3 VHH with V63M, M82L, V101A
notes: tested as periplasmic extract; also called 3CAHM40
